Results: IntAct's records for PubMed 15893672

B1: Angiopoietin-2 (Homo sapiens), O15123-1 (parent)
chain: MWQIVFFTLSCDLVLAAAYNNFRKSMDSIGKKQYQVQHGSCSYTFLLPEMDNCRSSSSPYVSNAVQRDAPLEYDDSVQRLQVLENIMENNTQWLMKLENYIQDNMKKEMVEIQQNAVQNQTAVMIEIGTNLLNQTAEQTRKLTDVEAQVLNQTTRLELQLLEHSLSTNKLEKQILDQTSEINKLQDKNSFLEKKVLAMEDKHIIQLQSIKEEKDQLQVLVSKQNSIIEELEKKIVTATVNNSVLQKQQHDLMETVNNLLTMMSTSNSAKDPTVAKEEQISFRDCAEVFKSGHTTNGIYTLTFPNSTEEIKAYCDMEAGGGGWTIIQRREDGSVDFQRTWKEYKVGFGNPSGEYWLGNEFVSQLTNQQRYVLKIHLKDWEGNEAYSLYEHFYLSSEELNYRIHLKGLTGTAGKISSISQPGNDFSTKDGDNDKCICKCSQMLTGGWWFDACGPSNLNGMYYPQRQNTNKFNGIKWYYWKGSGYSLKATTMMIRPADF

Variants of: B1
Conditions: with tie2_human TEK

effect of a mutation on the interaction | Variant
disrupting interaction | MWQIVFFTLSCDLVLAAAYNNFRKSMDSIGKKQYQVQHGSCSYTFLLPEMDNCRSSSSPYVSNAVQRDAPLEYDDSVQRLQVLENIMENNTQWLMKLENYIQDNMKKEMVEIQQNAVQNQTAVMIEIGTNLLNQTAEQTRKLTDVEAQVLNQTTRLELQLLEHSLSTNKLEKQILDQTSEINKLQDKNSFLEKKVLAMEDKHIIQLQSIKEEKDQLQVLVSKQNSIIEELEKKIVTATVNNSVLQKQQHDLMETVNNLLTMMSTSNSAKDPTVAKEEQISFRDCAEVFKSGHTTNGIYTLTFPNSTEEIKAYCDMEAGGGGWTIIQRREDGSVDFQRTWKEYKVGFGNPSGEYWLGNEFVSQLTNQQRYVLKIHLKDWEGNEAYSLYEHFYLSSEELNYRIHLKGLTGTAGKISSISQPGNDFSTKDGDNDKCICKCSQMLTGGWWFDACGPSNLNGMYYPQRQNTNKANGIKWAAWKGSGYSLKATTMMIRPADF [F469A;Y475A;Y476A]
disrupting interaction | MWQIVFFTLSCDLVLAAAYNNFRKSMDSIGKKQYQVQHGSCSYTFLLPEMDNCRSSSSPYVSNAVQRDAPLEYDDSVQRLQVLENIMENNTQWLMKLENYIQDNMKKEMVEIQQNAVQNQTAVMIEIGTNLLNQTAEQTRKLTDVEAQVLNQTTRLELQLLEHSLSTNKLEKQILDQTSEINKLQDKNSFLEKKVLAMEDKHIIQLQSIKEEKDQLQVLVSKQNSIIEELEKKIVTATVNNSVLQKQQHDLMETVNNLLTMMSTSNSAKDPTVAKEEQISFRDCAEVFKSGHTTNGIYTLTFPNSTEEIKAYCDMEAGGGGWTIIQRREDGSVDFQRTWKEYKVGFGNPSGEYWLGNEFVSQLTNQQRYVLKIHLKDWEGNEAYSLYEHFYLSSEELNYRIHLKGLTGTAGKISSISQPGNDFSTKDGDNDKCICKCSQMLTGGWWFDACGPSNLNGMYYPQRQNTNEFNGIEWYYWKGSGYSLKATTMMIRPADF [K468E;K473E]
